Laboratory results reported in patent publication US8410045B2, “Camptothecin-peptide conjugates and pharmaceutical compositions containing the same” (Drais Pharmaceuticals, Inc., priority 2006, dated 2013).
Where “and” joins values, the source holds several entries; their conditions need not be identical. Identical values can stand only once. Like-named read-outs stand apart in the source and are kept apart here. Marks after values point to notes of the source that are not given here.

Tests used:
[1] = tested on: MDA-MB-231 mammary carcinoma; test: Antitumor efficacy in MDA-MB-231 mammary carcinoma model in nude mice; assay type: in vivo; conditions: Table 7, i.v. Q2D3 × 3 W
[2] = tested on: NCI-H460 human epithelial lung carcinoma cells; test: In vitro cytotoxicity (WST-1 cell viability); assay type: cell-based; conditions: 24 h
[3] = Stability of conjugates in citrated plasma at 37° C. (half life time, HPLC fluorescence); assay type: in vitro ADME; conditions: dog
Method in brief: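 Conjugates at 2.55 μM incubated at 37° C in citrated plasma of several species, including human and dog. After TFA/acid extraction, released free camptothecin derivative (e.g. SN38) measured by reversed-phase C18 HPLC with fluorescence detection; half-life taken as time to 50 mol% release.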

[4] = Toxicity study in the beagle dog following intravenous infusion; conditions: for Reduction in WBC at D5 (%) / Toxic signs Day 1 / Toxic signs Following Days: i.v. infusion
Experimental: Adult female and male beagle dogs were individually housed with free access to tap water. A pellet diet was distributed daily.
Dogs (1 dog for each drug and dose) were infused intravenously through the cephalic or saphenous vein. These intravenous infusions were made using a single-use catheter (Intraflon®) and a plastic syringe connected to a syringe pump. During the injection, the animals were restrained in a hammock.
Conjugates were dissolved in water for injection (10% of final volume) and diluted with 0.9% NaCl to their final concentration. The volume administered to each animal was adjusted according to body weight.
Clinical signs, hematological and intestinal toxicities were monitored during a period of 15 days after infusion. Each animal was checked at least twice a day for mortality or signs of morbidity.
The body weight of each animal was recorded on the day −1, 4, 10 and 13.
Peripheral blood samples were taken into EDTA tubes for the determination of following parameters on days −1, 5, 11 and 14: erythrocytes, hemoglobin, mean cell volume, packed cell volume, mean cell hemoglobin concentration, mean cell hemoglobin, thrombocytes, leucocytes, differential white cell count with cell morphology.

[5] = tested on: LS 174T human colorectal carcinoma tumor; test: Antitumor efficacy in human LS 174T xenograft colon tumor model implanted in nude rats; assay type: in vivo
Experimental: The LS 174T study was performed using female nude rats (8 weeks old) purchased from Harlan breeding center (Gannat, France). LS 174T tumors were established by a subcutaneously implantation of cell (ATCC Number: CCl-188) suspensions in the right flank of the animals. The first injection of drugs was performed when the tumors reached a size of about 1000 mm^3. The tumor volume was calculated using the following formula: [length×width^2]/2.

[6] = Table 4, 20 (cumulative 100) μmol/kg, i.v. bolus, Q3/4Dx5
[7] = Table 7, i.v. Q4D × 5, 10 μmol/kg
[8] = Table 7, i.v. Q4D × 5, 20 μmol/kg

## CCc1c2c(nc3ccc(OC(=O)[C@H]4CC[C@H](CNC(=O)C5CCC(CN6C(=O)CC(SC[C@H](N)C(=O)N[C@H](C(=O)N[C@@H](CCCCN)C(=O)N[C@@H](CCCNC(=N)N)C(=O)NCC(=O)N[C@@H](CC(C)C)C(=O)N[C@@H](CCCCN)C(=O)N[C@@H](CC(C)C)C(=O)N[C@@H](CCCNC(=N)N)C(=O)N[C@@H](Cc7c[nH]cn7)C(=O)N[C@H](C(=O)N[C@@H](CCCNC(=N)N)C(=O)N7CCC[C@H]7C(=O)N[C@@H](CCCNC(=N)N)C(=O)N[C@H](C(=O)N[C@H](C(=O)N[C@@H](CCCNC(=N)N)C(=O)N[C@@H](CCSC)C(=O)N[C@@H](CC(=O)O)C(=O)N[C@H](C(=O)O)C(C)C)[C@@H](C)O)C(C)C)C(C)C)C(C)C)C6=O)CC5)CC4)cc13)-c1cc3c(c(=O)n1C2)COC(=O)[C@]3(O)CC (single isomer, unassigned) [DPV1047-BCH-SN38]
[1]; 12.5 μmol/kg
  Optimal T/C %: 34.1%
  TGI %: 65.9%
[1]; 25 μmol/kg
  Optimal T/C %: 30.1%
  TGI %: 69.9%
[2]
  IC50: 40 nM
[3]; DPV1047-linker-SN38, 2.55 μM, citrated plasma, read-out: Half life time, Dog plasma
  half-life: 4.5 h
[3]; Table 10, SN38 conjugates, read-out: Dog Plasma Half life time
  half-life: 4.33 h
[3]; Table 12, CPP-linker #5-SN38 conjugates incl. D conformation, read-out: Dog Plasma Half life time
  half-life: 4 h
[4]; dog, 20 mg/kg
  reduction in WBCs: 93%
  Reduction in WBC at D5 (%): −93%
  Toxic signs Day 1: None
  Toxic signs Following Days: Decrease in food
[4]; dog, 30 mg/kg
  clinical signs of toxicity: clear toxicological signs including diarrhea and a severe hematoxicity
  Reduction in WBC at D5 (%): −96%
  Toxic signs Day 1: None
  Toxic signs Following Days: Liquid faeces D4
[4]; dog, 5 mg/kg
  Reduction in WBC at D5 (%): −60%
  Toxic signs Day 1: None
  Toxic signs Following Days: None
[4]; dog, 10 mg/kg
  Reduction in WBC at D5 (%): −50% and −57%
  Toxic signs Day 1: None
  Toxic signs Following Days: None
[4]; dog, in vivo, iv
  MTD: ~20 mg/kg
[4]; dogs, 5 and 10 mg/kg
  clinical signs: no clinical signs
[5]; [6]
  Minimal T/C (%): 43%
  TGI %: 57*** %
[5]; [7]
  Optimal T/C %: 47.2%
  TGI %: 52.8%
[5]; [8]
  Optimal T/C %: 42.8%
  TGI %: 57.2%
